The values that follow come from EP3176583A2 (TLA Targeted Immunotherapies AB, dated 2017).

Bridge positions count the residues as written; N and C are the ends. Square brackets hold non-standard residues; d marks the D form. Side chains are listed from the residue outwards. * marks the point of attachment. Biotin = O=C1N[C@H]2[C@H](CS[C@H]2CCCCC(=O)*)N1; pGlu = O=C1CC[C@@H](C(=O)O)N1; Nle = CCCC[C@H](N)C(=O)O; AEEA = NCCOCCOCC(=O)O

For one test, the target named is hCCR7 (human) (UniProt P32248). Put plainly: cell-based or functional assay.
Sequence of hCCR7 (human) (P32248 25-378 limits assumed): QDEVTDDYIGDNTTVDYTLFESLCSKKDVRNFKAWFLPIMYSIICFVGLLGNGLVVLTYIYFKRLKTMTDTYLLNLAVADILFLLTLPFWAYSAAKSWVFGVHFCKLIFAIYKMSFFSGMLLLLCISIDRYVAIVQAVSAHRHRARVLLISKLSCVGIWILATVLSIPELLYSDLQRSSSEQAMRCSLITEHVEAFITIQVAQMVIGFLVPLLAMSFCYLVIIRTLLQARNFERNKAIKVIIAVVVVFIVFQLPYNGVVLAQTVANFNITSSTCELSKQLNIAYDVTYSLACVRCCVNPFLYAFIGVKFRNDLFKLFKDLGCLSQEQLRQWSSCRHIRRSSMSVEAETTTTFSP
Another test concerns the target T1, hCCR9 (human, UniProt P51686 1-369).
T1 sequence (looked up): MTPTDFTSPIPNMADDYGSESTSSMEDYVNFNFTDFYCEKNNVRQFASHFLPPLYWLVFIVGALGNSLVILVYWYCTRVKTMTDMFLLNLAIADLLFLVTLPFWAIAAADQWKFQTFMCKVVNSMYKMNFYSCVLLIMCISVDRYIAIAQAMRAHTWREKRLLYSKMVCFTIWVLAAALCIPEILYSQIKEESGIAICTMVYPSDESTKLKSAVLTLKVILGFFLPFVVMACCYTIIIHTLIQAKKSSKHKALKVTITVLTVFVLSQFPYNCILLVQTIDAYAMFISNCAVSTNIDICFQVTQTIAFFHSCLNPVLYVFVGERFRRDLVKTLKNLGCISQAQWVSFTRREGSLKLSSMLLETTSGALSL
Put plainly: cell-based or functional assay.

Take “biotinMIP-3β (human MIP-3β/CCL19 residues 1-77 with an additional Lys78 derivatised with Biotin) (from UniProt Q99731 22-98) (ligand)”: the EC50, agonist activity in an Aequorin assay with hCCR7 (human) is 11 nM. “native TECK (from UniProt O15444 24-150) (ligand)” came in with an EC50, agonist activity in an Aequorin assay in the test with hCCR9 of 67.9 nM.

In the test with hCCR7 (human), “recombinant native MIP-3β (from UniProt Q99731 22-98) (ligand)” yielded an EC50, agonist activity in an Aequorin assay of 1.6 nM.

B1: TECK-Biotin-Nle (truncated human TECK/CCL25, residues 1-74 of the mature protein, Met to Nleu substitution, derivatised at Lys72 with PEG-Biotin) (ligand)
chain: [pGlu]GVFEDCCLAYHYPIGWAVLRRAWTYRIQEVSGSCNLPAAIFYLPKRHRKVCGNPKSREVQRA[Nle]KLLDARNK([AEEA-Biotin])VF
modifications: disulfide 7-35, 8-52; also: TFA salt
In the case of B1, in the test with hCCR9, the “EC50, agonist activity in an Aequorin assay” value turned out to be 63.6 nM.
